Columns and labels:
[1] = Elimination by whole animal surface fluorescence imaging; type: in vivo; settings: mice, after injection, n = 6
Protocol: Surface fluorescence images for representative animals are shown and total surface fluorescence is quantified in bar graphs to the right of the image. […] The pharmacokinetics and biodistributions of these PN’s is further analyzed below.
Figure 3 Role PEG in determining elimination by surface fluorescence imaging. A) Animals were injected with unPEGylated peptide and imaged at the times indicated. Bar graph gives whole animal surface fluorescence determined as means and standard deviations, n = 6.
(§1) A Kodak FX multispectral imaging system was used (Carestream Molecular Imaging, Rochester, NY). Excitation at multiple wavelengths (620, 650, 690, 710, 720, 730, 750 and 760 nm) with the emission at 830 nm was setup for IR-783 spectrum; Excitation at multiple wavelengths (420, 440, 460, 480, 510, 520, 530, and 540 nm) with the emission at 600 nm was setup for Cy3 spectrum; Excitation at multiple wavelengths (450, 470, 510, 520, 530, 540, 550, 570, and 590 nm) with the emission at 700 nm was setup for mCherry; with manufacturer’s software to separate (unmix) the IR-783 spectrum, Cy3 spectrum, or mCherry spectrum from skin autofluorescence and chlorophyll fluorescence from food. X-ray images were taken after fluorescence images. […]
as §1, with “Whole animal surface fluorescence imaging: All animal experiments in this work were approved by the Institutional Review Committee of the Massachusetts General Hospital. […]” for “A Kodak FX multispectral imaging system was used (Carestream Molecular Imaging, Rochester, NY).”

[2] = mouse, in vivo; for Alpha half-life / Beta half-life / k elim half-life / k perm half-life / k vas return half-life: iv
Protocol: To assess the relationship between PN dimensions and transcapillary passage, the classic two compartment pharmacokinetic model ( Figure 4A ) [17] was applied to PN(783)10.0 ( Figure 4B ) and PN(783)4.3 ( Figures 4C ).
Groups of 5 nude mice (female; 25–30 g; 6–8 weeks old; nu/nu) were injected (tail vein, IV) with 10 nmole of PN(783)4.3 or PN(783)10.0. 50 µl of blood was collected from tail tip at the indicated times. The blood was processed as above, and diluted (25 µl plasma, 700 µl of PBS). Fluorescence was measured with Cary Eclipse Fluorescence Spectrophotometer, excitation at 765 nm and emission from 790 to 880 nm. The fluorescence intensity at 806 nm was plotted over time, and the data was fit to a biexponential, two phase decay curve. The fast and slow distribution half-life was given by the two phase decay fit with Graphpad Prism software.
From the two phase decay fit, a biexponential equation for blood concentration as a function of time, [drawing 8] , was obtained. By the relation of macro constants and micro constants: [drawing 9] , [drawing 10] , [drawing 11] [drawing 12] , micro constants k's can be obtained, and the half-life was calculated by [drawing 13] , as described in [17]. The curve for interstitium concentration vs. time was fit with MATLAB based on the curve of blood concentration vs. time.
PN pharmacokinetics: Groups of 5 nude mice (female; 25-30g; 6-8 weeks old; nu/nu) were injected (tail vein, IV) with 10 nmole of PN(783)4.3 or PN(783)10.0. 50 μl of blood was collected from tail tip at the indicated times. The blood was processed as above, and diluted (25 μl plasma, 700 μl of PBS). Fluorescence was measured with Cary Eclipse Fluorescence Spectrophotometer, excitation at 765 nm and emission from 790 to 880 nm. The fluorescence intensity at 806 nm was plotted over time, and the data was fit with two-phase decay curve. The fast and slow distribution half-life was given by the two-phase decay fit with Graphpad Prism software.
Two compartment model: From the two-phase decay fit, a biexponential equation for blood concentration as a function of time, [picture] , was obtained. By the relation of macro constants and micro constants, [picture] , [picture] , [picture] , micro constants k's can be obtained, and the half-life was calculated by [picture] , as described in ^5. The curve for interstitium concentration vs. time was fit with MATLAB based on the curve of blood concentration vs. time.
Serum fluorescence data from Figure 3B and Figure 3C was analyzed using the two-compartment model as described ^5. Data were first fit to biexponential equation, yielding values of Alpha, Beta (apparent decay constants) and values of A and B as shown in equations 1 and 2 below.

[3] = tested on: mCherry expressing HT-29 tumor; test: Intravital two photon microscopy of mCherry expressing HT-29 tumor in dorsal skinfold chamber; type: in vivo, nude mice; settings: 10 nmoles IV
Excerpt: A feature of PN design is that the fluorochrome can be selected to optimize optical properties for different applications. To image the vascular pharmacokinetic phase with two photon microscopy, PN(497)10.0 was used because its fluorescein is readily excited in the two photon mode. […] To further examine the vascular and interstitial phases, a dorsal skinfold chamber was used for the intravital, two photon microscopy of a mCherry expressing HT-29 tumor ( Figure 5B ).
Dorsal skinfold chamber (DSFC) tumors were grown in female nude mice (nu/nu; 25–30 g; 6–8 weeks old) with modifications from previously published techniques, [35]. 10^6 mCherry-HT-29 tumor cells in matrixgel (BD) were subcutaneously injected in the back of mice ∼1.5 cm left of the dorsal midline approximately halfway from the neck to the tail base. […] On days 2, 3, and 4 days after tumor DSFC implantation, when tumors were typically 3 mm in diameter, image stacks of tumor tissue were recorded under general anesthesia with Ketamine and Xylazine. […]
Multiphoton excitation was obtained through DeepSee and MaiTai Ti:sapphire lasers (Newport/Spectra-Physics) tuned to 920 and 1000 nm to excite all fluorescent probes used. […] Emitted fluorescence was detected through 460/50, 525/50, 595/50, 660/40 band-pass filters and non-descanned detectors to generate four-color images. […]

| Substance | Elimination seen by whole animal surface fluorescence [1] | k perm expressed as a half-life [2] [h] | Alpha half-life [2] [h] | Beta half-life [2] [h] | k elim half-life [2] [h] | k perm half-life [2] [h] | k vas return half-life [2] [h] | Localisation by intravital microscopy, interstitial phase ([3]; 20 h post-injection) | Localisation by intravital microscopy, vascular phase ([3]; ten minutes post-injection) |
| --- | --- | --- | --- | --- | --- | --- | --- | --- | --- |
| (DOTA)Lys(PEG 5 kDa)-Cys(IR-783) [PN(783)4.3] | bladder accumulation (arrow) at only 20 minutes post injection | 0.395 | 0.13 | 1.64 | 1.01 | 0.40 | 0.20 |  |  |
| (DOTA)Lys(PEG 30 kDa)-Cys(IR-783) [PN(783)10.0] | excellent elimination at 48 h |  | 0.51 | 7.0 | 4.2 | 1.02 | 1.23 |  |  |
| (DOTA)Lys(PEG 30 kDa)-Cys(Fl) [PN(497)10.0, PEG-like Nanoprobe: 30 kDa PEG, fluorescein, DOTA peptide] |  |  |  |  |  |  |  | seen in the interstitium at the tumor periphery | confined to the vasculature |

Source: publication PMC4004541, “PEG-Like Nanoprobes: Multimodal, Pharmacokinetically and Optically Tunable Nanomaterials” (PLoS ONE, 2014)
